Test results as given in patent US20160264649A1.

What was measured:
Experiment in all cases: cell-based or functional assay
[1] = target: HIV-1 MGRM-F1-012 Env (HIV-1)
[2] = target: HIV-1 MGRM-G-019 Env (HIV-1)
[3] = target: HIV-1 94UG103 Env (HIV-1)
[4] = target: HIV-1 CAAN.A2 (Acute) Env on pseudovirus (HIV-1)
[5] = target: HIV-1 MGRM-C-025 Env on pseudovirus (HIV-1)
[6] = target: HIV-1 MGRM-D-020 Env (HIV-1)
[7] = target: HIV-1 MGRM-F1-006 Env (HIV-1)
[8] = target: HIV-1 SC422661.8 (Acute) Env on pseudovirus (HIV-1)
[9] = target: HIV-1 JRFL Env on pseudovirus (HIV-1)
[10] = target: HIV-1 TRJ0.58 (Acute) Env on pseudovirus (HIV-1)
[11] = target: HIV-1 MGRM-F1-010 Env (HIV-1)
HIV-1 APV-17 Env (HIV-1) = target: HIV-1 APV-17 Env (HIV-1)
[12] = target: HIV-1 MGRM-D-014 Env (HIV-1)
HIV-1 APV-6 Env (HIV-1) = target: HIV-1 APV-6 Env (HIV-1)
[13] = target: HIV-1 MGRM-D-029 Env (HIV-1)
[14] = target: HIV-1 92UG024 Env (HIV-1)
[15] = target: HIV-1 MGRM-F1-023 Env (HIV-1)
[16] = target: HIV-1 MGRM-G-025 Env (HIV-1)
[17] = target: HIV-1 MGRM-AG-013 Env (HIV-1)
[18] = target: HIV-1 MGRM-G-013 Env (HIV-1)
[19] = target: HIV-1 MGRM-D-022 Env (HIV-1)
HIV-1 NL43 Env (HIV-1) = target: HIV-1 NL43 Env (HIV-1)
[20] = target: HIV-1 MGRM-D-018 Env (HIV-1)
[21] = target: HIV-1 MGRM-D-002 Env (HIV-1)
[22] = target: HIV-1 MGRM-C-009 Env on pseudovirus (HIV-1)
[23] = target: HIV-1 IAVI-C18 Env (HIV-1)
[24] = target: HIV-1 94UG114 Env (HIV-1)
[25] = target: HIV-1 VLGCB3 Env on pseudovirus (HIV-1)
[26] = target: HIV-1 MGRM-AG-011 Env (HIV-1)
[27] = target: HIV-1 MGRM-AG-003 Env (HIV-1)
[28] = target: HIV-1 92UG046 Env (HIV-1)
[29] = target: HIV-1 MGRM-AG-012 Env (HIV-1)
[30] = target: HIV-1 MGRM-C-013 Env on pseudovirus (HIV-1)
[31] = target: HIV-1 MGRM-C-017 Env on pseudovirus (HIV-1)
[32] = target: HIV-1 MGRM-AE-004 Env (HIV-1)
[33] = target: HIV-1 MGRM-C-015 Env on pseudovirus (HIV-1)
[34] = target: HIV-1 MGRM-C-006 Env on pseudovirus (HIV-1)
[35] = target: HIV-1 92TH021 Env (HIV-1)
[36] = target: HIV-1 MGRM-AG-001 Env (HIV-1)
[37] = target: HIV-1 MGRM-F1-014 Env (HIV-1)
[38] = target: HIV-1 MGRM-C-010 Env on pseudovirus (HIV-1)
[39] = target: HIV-1 MGRM-C-004 Env on pseudovirus (HIV-1)
[40] = target: HIV-1 MGRM-D-008 Env (HIV-1)
[41] = target: HIV-1 MGRM-F1-017 Env (HIV-1)
[42] = target: HIV-1 MGRM-F1-021 Env (HIV-1)
[43] = target: HIV-1 LAVI_C3 Env on pseudovirus (HIV-1)
[44] = target: HIV-1 92BR020 Env on pseudovirus (HIV-1)
[45] = target: HIV-1 MGRM-C-007 Env on pseudovirus (HIV-1)
[46] = target: HIV-1 93MW959 Env on pseudovirus (HIV-1)
[47] = target: HIV-1 IAVI-C22 Env (HIV-1)
[48] = target: HIV-1 APV_6 Env on pseudovirus (HIV-1)
[49] = target: HIV-1 97ZA012 Env on pseudovirus (HIV-1)

## 2F5 (antibody)
[1]
  IC50 (pseudovirus neutralization): > 50 µg/mL
[2]
  IC50 (µg/ml), pseudovirus neutralization: > 50 µg/mL
[3]
  neutralization IC50: 3.79 µg/mL
  neutralization IC90: 46.6 µg/mL
[4]
  IC50: 23.1 µg/mL
[5]
  IC50: > 50 µg/mL
[6]
  IC50 (µg/ml), pseudovirus neutralization: > 50 µg/mL
[7]
  IC50 (pseudovirus neutralization): 1.1 µg/mL
[8]
  IC50: > 50 µg/mL
[9]
  IC50: 3.54 µg/mL
[10]
  IC50: > 50 µg/mL
[11]
  IC50 (pseudovirus neutralization): 14.6 µg/mL
HIV-1 APV-17 Env (HIV-1)
  neutralization IC50: 2 µg/mL
[12]
  IC50 (µg/ml), pseudovirus neutralization: 2.22 µg/mL
HIV-1 APV-6 Env (HIV-1)
  neutralization IC50: 0.1 µg/mL
[13]
  IC50 (µg/ml), pseudovirus neutralization: > 50 µg/mL
[14]
  IC50 (µg/ml), pseudovirus neutralization: 0.95 µg/mL
  neutralization IC50: 1.27 µg/mL
  neutralization IC90: 34.4 µg/mL
[15]
  IC50 (pseudovirus neutralization): 1.78 µg/mL
[16]
  IC50 (µg/ml), pseudovirus neutralization: > 50 µg/mL
[17]
  IC50 (µg/ml), pseudovirus neutralization: 1.79 µg/mL
[18]
  IC50 (µg/ml), pseudovirus neutralization: 0.59 µg/mL
[19]
  IC50 (µg/ml), pseudovirus neutralization: 8.45 µg/mL
HIV-1 NL43 Env (HIV-1)
  neutralization IC50: 2.41 µg/mL
  neutralization IC90: 19.3 µg/mL
[20]
  IC50 (µg/ml), pseudovirus neutralization: 4.05 µg/mL
[21]
  IC50 (µg/ml), pseudovirus neutralization: 24.6 µg/mL
[22]
  IC50: > 50 µg/mL
[23]
  neutralization IC50: > 50 µg/mL
[24]
  IC50 (µg/ml), pseudovirus neutralization: > 50 µg/mL
[25]
  IC50: > 50 µg/mL
[26]
  IC50 (µg/ml), pseudovirus neutralization: > 50 µg/mL
[27]
  IC50 (µg/ml), pseudovirus neutralization: 0.14 µg/mL
[28]
  IC50 (µg/ml), pseudovirus neutralization: > 50 µg/mL
[29]
  IC50 (µg/ml), pseudovirus neutralization: 0.33 µg/mL
[30]
  IC50: 18.4 µg/mL
[31]
  IC50: > 50 µg/mL
[32]
  IC50 (µg/ml), pseudovirus neutralization: 0.98 µg/mL
[33]
  IC50: > 50 µg/mL
[34]
  IC50: > 50 µg/mL
[35]
  neutralization IC50: 1.51 µg/mL
  neutralization IC90: 18.8 µg/mL
[36]
  IC50 (µg/ml), pseudovirus neutralization: 0.75 µg/mL
[37]
  IC50 (pseudovirus neutralization): 15.1 µg/mL
[38]
  IC50: > 50 µg/mL
[39]
  IC50: > 50 µg/mL
[40]
  IC50 (µg/ml), pseudovirus neutralization: > 50 µg/mL
[41]
  IC50 (pseudovirus neutralization): > 50 µg/mL
[42]
  IC50 (pseudovirus neutralization): 1.37 µg/mL
[43]
  IC50: > 50 µg/mL
[44]
  IC50: > 50 µg/mL
[45]
  IC50: > 50 µg/mL
[46]
  IC50: > 50 µg/mL
[47]
  neutralization IC50: > 50 µg/mL
  neutralization IC90: > 50 µg/mL
[48]
  IC50: 0.25 µg/mL
[49]
  IC50: > 50 µg/mL

## 1495_C14 (PGC14) (antibody)
[1]
  IC50 (pseudovirus neutralization): > 50 µg/mL
[2]
  IC50 (µg/ml), pseudovirus neutralization: > 50 µg/mL
[3]
  neutralization IC50: > 50 µg/mL
[4]
  IC50: > 50 µg/mL
[5]
  IC50: > 50 µg/mL
[6]
  IC50 (µg/ml), pseudovirus neutralization: > 50 µg/mL
[7]
  IC50 (pseudovirus neutralization): > 50 µg/mL
[8]
  IC50: > 50 µg/mL
[9]
  IC50: > 50 µg/mL
[10]
  IC50: > 50 µg/mL
[11]
  IC50 (pseudovirus neutralization): > 50 µg/mL
HIV-1 APV-17 Env (HIV-1)
  neutralization IC50: > 50 µg/mL
[12]
  IC50 (µg/ml), pseudovirus neutralization: 48 µg/mL
HIV-1 APV-6 Env (HIV-1)
  neutralization IC50: 7.41 µg/mL
[13]
  IC50 (µg/ml), pseudovirus neutralization: > 50 µg/mL
[14]
  IC50 (µg/ml), pseudovirus neutralization: > 50 µg/mL
  neutralization IC50: > 50 µg/mL
[15]
  IC50 (pseudovirus neutralization): > 50 µg/mL
[16]
  IC50 (µg/ml), pseudovirus neutralization: > 50 µg/mL
[17]
  IC50 (µg/ml), pseudovirus neutralization: > 50 µg/mL
[18]
  IC50 (µg/ml), pseudovirus neutralization: > 50 µg/mL
[19]
  IC50 (µg/ml), pseudovirus neutralization: > 50 µg/mL
HIV-1 NL43 Env (HIV-1)
  neutralization IC50: 0.373 µg/mL
[20]
  IC50 (µg/ml), pseudovirus neutralization: > 50 µg/mL
[21]
  IC50 (µg/ml), pseudovirus neutralization: 29 µg/mL
[22]
  IC50: > 50 µg/mL
[23]
  neutralization IC50: > 50 µg/mL
[24]
  IC50 (µg/ml), pseudovirus neutralization: > 50 µg/mL
[25]
  IC50: 21 µg/mL
[26]
  IC50 (µg/ml), pseudovirus neutralization: > 50 µg/mL
[27]
  IC50 (µg/ml), pseudovirus neutralization: > 50 µg/mL
[28]
  IC50 (µg/ml), pseudovirus neutralization: > 50 µg/mL
[29]
  IC50 (µg/ml), pseudovirus neutralization: > 50 µg/mL
[30]
  IC50: > 50 µg/mL
[31]
  IC50: > 50 µg/mL
[32]
  IC50 (µg/ml), pseudovirus neutralization: > 50 µg/mL
[33]
  IC50: > 50 µg/mL
[34]
  IC50: > 50 µg/mL
[35]
  IC50 (µg/ml), pseudovirus neutralization: > 50 µg/mL
  neutralization IC50: > 50 µg/mL
[36]
  IC50 (µg/ml), pseudovirus neutralization: > 50 µg/mL
[37]
  IC50 (pseudovirus neutralization): > 50 µg/mL
[38]
  IC50: > 50 µg/mL
[39]
  IC50: > 50 µg/mL
[40]
  IC50 (µg/ml), pseudovirus neutralization: > 50 µg/mL
[41]
  IC50 (pseudovirus neutralization): > 50 µg/mL
[42]
  IC50 (pseudovirus neutralization): 46 µg/mL
[43]
  IC50: 12 µg/mL
[44]
  IC50: 4 µg/mL
[45]
  IC50: > 50 µg/mL
[46]
  IC50: > 50 µg/mL
[47]
  neutralization IC50: 9.5 µg/mL
[48]
  IC50: 23 µg/mL
[49]
  IC50: > 50 µg/mL
